The text below walks through data of patent US20240209062A1 (INVETX, published 2024).

Sequences and labels used below:
B1: IgG with wild-type feline IgG1a Fc (antibody)
heavy: DVQLVESGGDLVKPGGSLRLTCVASGLSLTSDSMSWVRQAPGKGLQWVSTLWSNRGTYYTDSVKGRFTISKDNAENTLYLQMNNLKTEDTATYYCASIYYYEADYLHWYFDFWGQGALVTVSSASTTAPSVFPLAPSCGTTSGATVALACLVLGYFPEPVTVSWNSGALTSGVHTFPAVLQASGLYSLSSMVTVPSSRWLSDTFTCNVAHPPSNTKVDKTVRKTDHPPGPKPCDCPKCPPPEAAGGPSIFIFPPKPKDTLSISRTPEVTCLVVDLGPDDSDVQITWFVDNTQVYTAKTSPREEQFNSTYRVVSVLPILHQDWLKGKEFKCKVNSKSLPSPIERTISKAKGQPHEPQVYVLPPAQEELSRNKVSVTCLIKSFHPPDIAVEWEITGQPEPENNYRTTPPQLDSDGTYFVYSKLSVDRSHWQRGNTYTCSVSHEALHSHHTQKSLTQSPG
light: EIQMTQSPTSLSASVGDRVTITCRASEGIANNLSWYQQTPGKAPKLLIYATSNLHSGVPSRFSGSGSGTDFTLTISSLQPEDFATYYCQQGFKWPLTFGGGTKLEITRSDAQPSVFLFQPSLDELHTGSASIVCILNDFYPKEVNVKWKVDGVVQNKGIQESTTEQNSKDSTYSLSSTLTMSSTEYQSHEKFSCEVTHKSLASTLVKSFNRSECQRE
notes: Constant domain carries the MALA mutations (M234A, L244A as printed); variable domains from WO 2023/97275; also called Wild-type Fc; wild type feline Fc
B2: IgG with feline IgG1a Fc variant S252M, R392E (antibody)
heavy: B1 heavy with S261M, R403E
light: B1 light
notes: IgG1a constant domain with MALA mutations (M234A, L244A as printed); variable domains from WO 2023/97275
B3: IgG with feline IgG1a Fc variant S252M, R301V (antibody)
heavy: B1 heavy with S261M, R310V
light: B1 light
notes: as for B2
B4: IgG with feline IgG1a Fc variant S252Y, R392E (antibody)
heavy: B1 heavy with S261Y, R403E
light: B1 light
notes: as for B2
B5: IgG with feline IgG1a Fc variant S252M, R301L (antibody)
heavy: B1 heavy with S261M, R310L
light: B1 light
notes: as for B2
B6: IgG with feline IgG1a Fc variant S252Y, L309D (antibody)
heavy: B1 heavy with S261Y, L318D
light: B1 light
notes: as for B2
B7: IgG with feline IgG1a Fc variant S428L, I377Y (antibody)
heavy: B1 heavy with I386Y, S439L
light: B1 light
notes: Printed '1377Y' read as I377Y; IgG1a constant domain with MALA mutations (M234A, L244A as printed); variable domains from WO 2023/97275; also called S428L, 1377Y
B8: IgG with feline IgG1a Fc variant S428L, I377L (antibody)
heavy: B1 heavy with I386L, S439L
light: B1 light
notes: Printed '1377L' read as I377L; IgG1a constant domain with MALA mutations (M234A, L244A as printed); variable domains from WO 2023/97275; also called S428L, 1377L
B9: IgG with feline IgG1a Fc variant S252Y, T286D (antibody)
heavy: B1 heavy with S261Y, T295D
light: B1 light
notes: as for B2
B10: IgG with feline IgG1a Fc variant S252M, Q311V (antibody)
heavy: B1 heavy with S261M, Q320V
light: B1 light
notes: as for B2
B11: IgG with feline IgG1a Fc variant S252M, L309V (antibody)
heavy: B1 heavy with S261M, L318V
light: B1 light
notes: as for B2
B12: IgG with feline IgG1a Fc variant S252Y, T286E (antibody)
heavy: B1 heavy with S261Y, T295E
light: B1 light
notes: as for B2
B13: IgG with feline IgG1a Fc variant S252M, R392D (antibody)
heavy: B1 heavy with S261M, R403D
light: B1 light
notes: as for B2
B14: IgG with feline IgG1a Fc variant S252Y, L309V (antibody)
heavy: B1 heavy with S261Y, L318V
light: B1 light
notes: as for B2
B15: IgG with feline IgG1a Fc variant S252M, L309D (antibody)
heavy: B1 heavy with S261M, L318D
light: B1 light
notes: as for B2
B16: IgG with feline IgG1a Fc variant S252M, T286E (antibody)
heavy: B1 heavy with S261M, T295E
light: B1 light
notes: as for B2
B17: IgG with feline IgG1a Fc variant S252M, I377Y (antibody)
heavy: B1 heavy with S261M, I386Y
light: B1 light
notes: Printed '1377Y' read as I377Y; IgG1a constant domain with MALA mutations (M234A, L244A as printed); variable domains from WO 2023/97275; also called S252M, 1377Y
B18: IgG with feline IgG1a Fc variant S428L (antibody)
heavy: B1 heavy with S439L
light: B1 light
notes: as for B2
B19: IgG with feline IgG1a Fc variant S252M, T286D (antibody)
heavy: B1 heavy with S261M, T295D
light: B1 light
notes: as for B2
B20: IgG with feline IgG1a Fc variant S252M, I377L (antibody)
heavy: B1 heavy with S261M, I386L
light: B1 light
notes: Printed '1377L' read as I377L; IgG1a constant domain with MALA mutations (M234A, L244A as printed); variable domains from WO 2023/97275; also called S252M, 1377L
B21: IgG with feline IgG1a Fc variant S252Y, I377Y (antibody)
heavy: B1 heavy with S261Y, I386Y
light: B1 light
notes: Printed '1377Y' read as I377Y; IgG1a constant domain with MALA mutations (M234A, L244A as printed); variable domains from WO 2023/97275; also called S252Y, 1377Y
B22: IgG with feline IgG1a Fc variant S252M, R301Y (antibody)
heavy: B1 heavy with S261M, R310Y
light: B1 light
notes: as for B2
B23: IgG with feline IgG1a Fc variant S252Y (antibody)
heavy: B1 heavy with S261Y
light: B1 light
notes: as for B2
B24: IgG with feline IgG1a Fc variant S252Y, R392D (antibody)
heavy: B1 heavy with S261Y, R403D
light: B1 light
notes: as for B2
B25: IgG with feline IgG1a Fc variant S252M (antibody)
heavy: B1 heavy with S261M
light: B1 light
notes: as for B2
B26: IgG with feline IgG1a Fc variant S252Y, R301Y (antibody)
heavy: B1 heavy with S261Y, R310Y
light: B1 light
notes: as for B2
B27: IgG with feline IgG1a Fc variant S252Y, R301L (antibody)
heavy: B1 heavy with S261Y, R310L
light: B1 light
notes: as for B2
B28: IgG with feline IgG1a Fc variant S252Y, R301V (antibody)
heavy: B1 heavy with S261Y, R310V
light: B1 light
notes: as for B2
B29: IgG with feline IgG1a Fc variant S252Y, I377L (antibody)
heavy: B1 heavy with S261Y, I386L
light: B1 light
notes: Printed '1377L' read as I377L; IgG1a constant domain with MALA mutations (M234A, L244A as printed); variable domains from WO 2023/97275; also called S252Y, 1377L

Residue numbers refer to the chain shown, from its start. Numbers in names are those of the source.

This test deals with T1, feline FcRn (soluble portion of large subunit p51 isoform X1 with C-terminal 6xHis-tag, co-expressed with … (feline, UniProt Q5MGS7 21-118)).
T1 construct: Heterodimer made by co-expression in CHO cells, purified on HisTrap FF; also called FcRn complex
T1 sequence (chain, as listed by the source limits assumed, chain 1 of 2): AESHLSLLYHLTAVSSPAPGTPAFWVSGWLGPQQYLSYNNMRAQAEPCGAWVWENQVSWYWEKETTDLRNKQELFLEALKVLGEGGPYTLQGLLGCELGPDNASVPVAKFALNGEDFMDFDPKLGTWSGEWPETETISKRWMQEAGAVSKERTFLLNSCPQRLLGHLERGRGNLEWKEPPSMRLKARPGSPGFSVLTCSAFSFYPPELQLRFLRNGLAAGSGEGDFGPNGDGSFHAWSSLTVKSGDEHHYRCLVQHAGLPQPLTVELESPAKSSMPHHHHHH
T1 sequence (Q5MGS7 other isoform, or with tags, fused parts or gaps limits assumed, chain 2 of 2): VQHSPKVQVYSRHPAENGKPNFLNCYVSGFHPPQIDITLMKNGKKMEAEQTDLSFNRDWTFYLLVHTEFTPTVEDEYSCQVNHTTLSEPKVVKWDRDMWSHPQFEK
The test can be described thus: SPR, Biacore T200, IgG captured on Protein L chip, feline FcRn flowed over, pH 5.9, 1:1 fit. The method, then:
The feline FcRn binding experiments at pH 5.9 were completed on a BIACORE™ T200 instrument. A Series S Protein L Sensor chip (Cytiva, Cat. No. BR29205137) was used to capture the antibody variants via the kappa (κ) light chain. The feline variants were captured onto the protein L chip at a flow rate of 10 μL/min for 60 seconds. 1×PBX-P+(Cytiva Cat 28995084) was adjusted to pH 5.9 for the running buffer. The feline FcRn was flowed over the sensor chip at 30 μL/min for 120 seconds contact time and 600 seconds dissociation time. Regeneration of the flow cells was completed by flowing over 10 mM glycine, pH 1.7 at 30 μL/min for 30 seconds. The data were evaluated by the BIACORE™T200 Evaluation software v3.2.1 by fitting to a 1:1 kinetic interaction model.
Take B1: the Kd – broadly, the constant that tells how readily two partners part at equilibrium – amounted to 417 nM; the koff (usually the rate constant with which the complex falls apart) was 0.273 s⁻¹; the kon (usually a measure of how fast the partners come together) was found to be 709000 M⁻¹ s⁻¹.

For the molecule B2, the Kd stood at 186 nM, the koff was 0.177 s⁻¹ and the kon was 965000 M⁻¹ s⁻¹.

For B3, binding was put at a Kd of 278 nM, the koff stood at 0.206 s⁻¹ and the association rate constant (kon) came to 745000 M⁻¹ s⁻¹.

The molecule B4 came in with a Kd of 24.1 nM, a koff of 0.0287 s⁻¹ and a kon of 1.19e+06 M⁻¹ s⁻¹.

Molecule B5 registered a dissociation constant Kd of 280 nM, an off-rate constant (koff) of 0.332 s⁻¹ and a kon of 1.2e+06 M⁻¹ s⁻¹.

For B6, binding was characterised by a dissociation constant (Kd) of 56.7 nM, the koff was 0.0284 s⁻¹ and the kon was determined as 502000 M⁻¹ s⁻¹.

For B7, binding was put at a Kd of 107 nM, the koff worked out at 0.117 s⁻¹ and the kon was 1.09e+06 M⁻¹ s⁻¹.

Molecule B8 registered a Kd of 87.7 nM, a koff of 0.0723 s⁻¹ and a kon of 819000 M⁻¹ s⁻¹.

For the molecule B9, the Kd was 15.2 nM, the koff amounted to 0.00955 s⁻¹ and the kon was 631000 M⁻¹ s⁻¹.

Consider B10, for which binding was put at a Kd of 152 nM, the koff came to 0.121 s⁻¹ and the kon came to 865000 M⁻¹ s⁻¹.

In the case of B11, the affinity, expressed as Kd, was 129 nM; the koff was 0.124 s⁻¹; the kon came out at 958000 M⁻¹ s⁻¹.

B12 gave a Kd of 12.1 nM, a koff of 0.00783 s⁻¹ and a kon of 650000 M⁻¹ s⁻¹.

In the case of B13, the Kd amounted to 268 nM, the koff came to 0.229 s⁻¹ and the kon is 856000 M⁻¹ s⁻¹.

Molecule B14 registered a Kd of 18.7 nM, a dissociation rate constant (koff) of 0.0139 s⁻¹ and a kon of 747000 M⁻¹ s⁻¹.

Molecule B15 registered a Kd of 352 nM, a koff of 0.203 s⁻¹ and a kon of 581000 M⁻¹ s⁻¹.

Turning to B16, the Kd came out at 101 nM, the koff was 0.0719 s⁻¹ and the on-rate constant (kon) came to 715000 M⁻¹ s⁻¹.

B17 gave a Kd of 202 nM, a koff of 0.175 s⁻¹ and a kon of 862000 M⁻¹ s⁻¹.

In turn, B18 yielded a Kd of 64 nM, a koff of 0.0619 s⁻¹ and a kon of 968000 M⁻¹ s⁻¹.

B19 registered an equilibrium dissociation constant (Kd) of 123 nM, a koff of 0.105 s⁻¹ and a kon of 850000 M⁻¹ s⁻¹.

Turning to B20, the dissociation constant Kd was determined as 216 nM, the koff is 0.187 s⁻¹ and the kon came to 869000 M⁻¹ s⁻¹.

For the molecule B21, the Kd was found to be 36.1 nM, the off-rate constant (koff) worked out at 0.0258 s⁻¹ and the association rate constant (kon) came to 716000 M⁻¹ s⁻¹.

As for B22, the Kd was determined as 258 nM, the koff was determined as 0.18 s⁻¹ and the kon is 695000 M⁻¹ s⁻¹.

B23 came in with a Kd of 36.1 nM, a koff of 0.0268 s⁻¹ and a kon of 742000 M⁻¹ s⁻¹.

The molecule B24 had a Kd of 25 nM, a koff of 0.0296 s⁻¹ and a kon of 1.19e+06 M⁻¹ s⁻¹.

The molecule B25 registered a Kd of 279 nM, a koff of 0.192 s⁻¹ and a kon of 690000 M⁻¹ s⁻¹.

For the molecule B26, the Kd was 37.6 nM, the koff came to 0.0262 s⁻¹ and the kon is 696000 M⁻¹ s⁻¹.

B27 yielded a Kd of 38.8 nM, a koff of 0.0277 s⁻¹ and a kon of 714000 M⁻¹ s⁻¹.

For the molecule B28, the dissociation constant Kd amounted to 38.7 nM, the koff stood at 0.028 s⁻¹ and the kon worked out at 724000 M⁻¹ s⁻¹.

As for B29, the Kd came to 31.5 nM, the dissociation rate constant (koff) was 0.0224 s⁻¹ and the on-rate constant (kon) was 712000 M⁻¹ s⁻¹.
